Measured values: paper PMC5101480 (Scientific Reports, 2016)
“Also recorded” adds a separate entry of the source.

How the values were obtained:
[1] = system: TPR domain of SGTA (SGTA_TPR, residues 84–211); assay: Solution NMR CSP titration of unlabelled SGTA_TPR into 15N-labelled Rpn13_260-407; format: binding, human; details: 15N-labelled Rpn13_260-407, SGTA_TPR to 1:1; pH 6.0, 25 °C
Description: In order to understand molecular details underlying the interaction between SGTA and Rpn13, solution NMR studies were carried out on excised domains of SGTA and Rpn13 guided by earlier mapping studies. Reciprocal chemical shift perturbation (CSP) experiments were performed by titrating unlabelled Rpn13 C-terminal domain (residues 260–407; hereafter described as Rpn13_260-407) into ^15N-labelled TPR domain of SGTA (residues 84–211; hereafter referred to as SGTA_TPR) and vice versa. Assignments of backbone amide resonances were obtained from the BMRB (accession numbers 5709 and 17286, for SGTA_TPR and Rpn13_260-407, respectively). […]
Protein samples at concentrations between 300 μM and 1 mM were prepared in 10% D2O (Sigma Aldrich), 10 mM potassium phosphate pH 6.0, 100 mM NaCl and 250 μM TCEP buffer (with 10 μM DSS for proton chemical shift referencing). […] All NMR spectra were processed with TopSpin and analysed with CcpNMR Analysis[35]. Proteins used for NMR titrations were dialysed overnight against the same buffer (10 mM potassium phosphate pH 6.0, 100 mM NaCl and 250 μM TCEP) and mixed in different molar ratios, with the concentration of the labelled protein maintained constant. ^1H-^15N HSQC experiments were recorded for each titration point at 25 °C. Chemical shift perturbation (CSP) values were calculated for each amide signal using the following formula: […]

[2] = biological target: T1, TPR domain of SGTA (SGTA_TPR) (Homo sapiens, UniProt O43765); assay: Solution NMR CSP titration of unlabelled ligand into 15N-labelled SGTA_TPR; format: binding; details: pH 6.0, 25 °C
T1 construct: thioredoxin A (TxA) fusion (N, cleaved yes); hexahistidine tag (N, cleaved yes); made in house; host or cells: E. coli BL21(DE3) Rosetta
Description: In order to understand molecular details underlying the interaction between SGTA and Rpn13, solution NMR studies were carried out on excised domains of SGTA and Rpn13 guided by earlier mapping studies. Reciprocal chemical shift perturbation (CSP) experiments were performed by titrating unlabelled Rpn13 C-terminal domain (residues 260–407; hereafter described as Rpn13_260-407) into ^15N-labelled TPR domain of SGTA (residues 84–211; hereafter referred to as SGTA_TPR) and vice versa. Assignments of backbone amide resonances were obtained from the BMRB (accession numbers 5709 and 17286, for SGTA_TPR and Rpn13_260-407, respectively). The ^1H-^15N HSQC spectra of both SGTA_TPR and Rpn13_260-407 show binding in a fast exchange regimen (Figs 1A and 2A). […] Binding was further confirmed by size-exclusion chromatography (SEC) and isothermal titration calorimetry (ITC) (Fig. 1C,D). […] ITC experiments yield a dissociation constant of 16.1 ± 1.4 μM in keeping with the value obtained from NMR.
Protein samples at concentrations between 300 μM and 1 mM were prepared in 10% D2O (Sigma Aldrich), 10 mM potassium phosphate pH 6.0, 100 mM NaCl and 250 μM TCEP buffer (with 10 μM DSS for proton chemical shift referencing). All NMR experiments were acquired in 5 mm NMR tubes at 25 °C on 500 MHz and 700 MHz Bruker Avance spectrometers equipped with cryoprobes and operated by the TopSpin 3.1 software package. All NMR spectra were processed with TopSpin and analysed with CcpNMR Analysis[35]. Proteins used for NMR titrations were dialysed overnight against the same buffer (10 mM potassium phosphate pH 6.0, 100 mM NaCl and 250 μM TCEP) and mixed in different molar ratios, with the concentration of the labelled protein maintained constant. ^1H-^15N HSQC experiments were recorded for each titration point at 25 °C. Chemical shift perturbation (CSP) values were calculated for each amide signal using the following formula: […]
where Δδ1H and Δδ15N are the chemical shift differences for the same amide in its free and bound state (δfree−δbound) and for proton and nitrogen chemical shift values respectively. […]

[3] = system: K160E/R164E double mutant SGTA_TPR; assay: Size exclusion chromatography (SEC) complex formation with K160E/R164E double mutant SGTA_TPR; format: binding, human; details: Rpn13_260-407 up to 3-fold molar excess
From the text: The ‘two-carboxylate clamp’ mode of binding is a well-characterised mechanism of molecular recognition by TPR domains in the context of their binding to the conserved C-terminal IEEVD and MEEVD motifs of Hsp70 and Hsp90 chaperones, respectively. It is known that conserved residues present on the concave surface of the TPR domain form a positively charged region within this groove that clamp, the two carboxylate groups of the terminal aspartate (Fig. 3D). As the Rpn13 amino acid sequence ends with an aspartate, and given the C-terminal DMSLD peptide being necessary and sufficient for this interaction, the possibility of a two-carboxylate clamp mechanism was explored by site-directed mutagenesis experiments. […] Therefore a K160E/R164E double mutant version of SGTA was used in SEC and NMR experiments to understand the effect it had on Rpn13_260-407 binding.
Gene fragments encoding human Rpn13 (260–407 and 260–402) and SGTA_TPR domain (84–211) were PCR amplified from cDNA (Life Technologies) and cloned into the BamHI/XhoI site of a modified pET28 vector which encodes an N-terminal thioredoxine A (TxA) fusion protein followed by a hexahistidine tag and tobacco etch virus (TEV) protease cleavage site. […]

T1 sequence (O43765 84-211): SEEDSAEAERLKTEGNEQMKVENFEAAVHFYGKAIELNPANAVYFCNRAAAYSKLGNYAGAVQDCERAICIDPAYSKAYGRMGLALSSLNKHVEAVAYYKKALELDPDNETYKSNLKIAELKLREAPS

effect on SGTA_TPR helix-7 residues 203–209 amide signals ([2]; 3-fold molar excess of unlabelled ligand): perturbed
B1: Rpn13_260-407: Rpn13 C-terminal domain (residues 260–407), human, expressed in E. coli (protein)
chain: QPIQLSDLQSILATMNVPAGPAGGQQVDLASVLTPEIMAPILANADVQERLLPYLPSGESLPQTADEIQNTLTSPQFQQALGMFSAALASGQLGPLMCQFGLPAEAVEAANKGDVEAFAKAMQNNAKPEQKEGDTKDKKDEEEDMSLD
modifications: left off: thioredoxin A (TxA), N-terminal, cleaved | His6, N-terminal, cleaved
notes: Rpn13 C-terminal domain (residues 260–407), human, expressed in E. coli
CSP of Rpn13_260-407 backbone amides on binding SGTA_TPR [1]: only extreme C-terminal residues Met 404, Ser 405, Leu 406 and Asp 407 are perturbed
CSP of SGTA_TPR backbone amide signals, result in words ([2]; unlabelled ligand into 15N-labelled SGTA_TPR, Rpn13_260-407 up to 8 equivalents, Rpn13_260-402 up to 6-fold molar excess): Widespread perturbation of backbone amide signals; also recorded: cannot be fitted to a meaningful binding isotherm
SEC complex formation with K160E/R164E SGTA_TPR [3]: does not co-elute; also recorded: no evidence of complex formation
